Experimental data published in patent publication US9040266B2, “Cell-based systems for production of methyl formate” (The Regents of the University of California, priority 2009, dated 2015).

B1: Leptospirillum: methyl halide transferase from Leptospirillum sp. Group II UBA, SEQ ID NO: 11 (protein)
chain: MPDKIFWNQRYLDKNTGWDLGQPAPPFVRLVEKGEFGPPGRVLIPGAGRSYEGIFLASRGYDVTCVDFAPQAVREAREAARQAGVKLTVVEEDFFRLDPRTIGVFDYLVEHTCFCAIDPPMRQAYVDQSHALLAPGGLLIGLFYAHGREGGPPWTTTEEEVRGLFGKKFDLLSLGLTDWSVDSRKGEELLGRLRRKNDRIE
modifications: Leptospirillum species, synthetic polypeptide of methyl halide transferase thereof
B2: B. phymatum: methyl halide transferase from Burkholderia phymatum STM815, SEQ ID NO: 4 (protein, listed as Burkholderia phymatum)
chain: MSDKRPSVPPSAPDFENRDPNAPGFWDERFGRGFTPWDQAGVPPAFKAFVERHSPVPVLIPGCGSAYEARWLAEKGWTVRAIDFAPNAVEAARAQLGSHASLVHEADFFTYRPPFDPGWIYERAFLCALPPARRSDWVARMAQLLSPGGLLAGFFFIGATEKGPPFGIERAELDALMSPDFTLVEDEPVDDSIAVFAGRERWLTWRRRGAARG
B3: C. neoformans JEC21: methyl halide transferase (hypothetical protein) from Cryptococcus neoformans var. neoformans JEC21, SEQ ID NO: 12 (protein)
chain: MAQASGDDNAWEERWAQGRTAFDQSAAHPVFVKFLKSDIARELGVPKSGKALVPGCGRGYDVHLLASTGLDAIGLDLAPTGVEAARRWIGSQPSTSGKADILVQDFFTYDPLEKFDLIYDYTFLCALPPSLRQEWARQTTHLANIAADTNPILITLMYPLPPSAKSGGPPFALSEEIYQELLKEQGWKMVWSEDIEEPTRMVGAPGGEKLAVWKRI
modifications: Cryptococcus neoformans
B4: D. aromatica: methyl halide transferase from Dechloromonas aromatica RCB, SEQ ID NO: 15 (protein, listed as Dechloromonas aromatica)
chain: MSETIKPPEQRPEHPDFWCKRFGEGVTPWDAGKVPMAFVDFVGAQTTPLNSLIPGCGSAWEAAHLAELGWPVTALDFSPLAIEKAREVLGDSPVKLVCADFFTFAPRQPLDLIYERAFLCALPRKLWADWGKQVAELLPSGARLAGFFFLCDQPKGPPFGILPAQLDELLRPNFELIEDQPVGDSVPVFAGRERWQVWRRR
B5: C. cinerea: methyl halide transferase (hypothetical protein) from Coprinopsis cinerea okayama, SEQ ID NO: 16 (protein)
chain: MADPNLAPEIRAKMQEIFKPDDRHSWDLLWKENITPWDAGDAQPSLIELIEESGLDFARKGRALVPGCGTGYDAVYLASALGLQTIGMDISESAVEAANRYRDSSGVQGADRAIFQKADFFTYKVPDEERFDLIMDHTFFCAIHPSLRPEWGQRMSELIKPGGYLITICFPMIPKVETGPPYYLRPEHYDEVLKETFEKVYDKVPTKSSENHKDKERMLVWKKK
modifications: Synthetic polypeptide of hypothetical protein of coprinopsis cinerea.
B6: FB: methyl halide transferase from Flavobacteria bacterium BBFL7, SEQ ID NO: 19 (protein, listed as Flavobacteria bacterium)
chain: MPLNKQYWEDRYKNNSTGWDLGIISTPIKEYVNQLENKNSKILIPGAGNAHEATYLVKNGFKNIFILDIALSPLKFAKQRSKLPEEHLIQQDFFDHKGSYDLIIEQTFFCALEPRFRESYVKKIHMLLRDQGCLIGVLFNFENNLSSPPFGGSINEYLNLFEPYFEIVTMEPCNNSVIERQGKEIFIKLKKKK
B7: O. sativa: methyl halide transferase from Oryza sativa (japonica cultivar-group), SEQ ID NO: 13 (protein, listed as Oryza sativa)
chain: MASAIVDVAGGGRQQALDGSNPAVARLRQLIGGGQESSDGWSRCWEEGVTPWDLGQRTPAVVELVHSGTLPAGDATTVLVPGCGAGYDVVALSGPGRFVVGLDICDTAIQKAKQLSAAAAAAADGGDGSSSFFAFVADDFFTWEPPEPFHLIFDYTFFCALHPSMRPAWAKRMADLLRPDGELITLMYLAEGQEAGPPFNTTVLDYKEVLNPLGLVITSIEDNEVAVEPRKGMEKIARWKRMTKSD
B8: MM: methyl halide transferase from Maricaulis maris MCS10, SEQ ID NO: 18 (protein, listed as Maricaulis maris)
chain: MTHDENRSAFDWEARFIDGNTPWERGALHPAFEAWQHQSAFAAGDRALIPGCGRSPELLALAQAGLAVTGADLSGTAMAWQRKLFADAGQQVELITGDVFDWQPQQALDLVYEQTFLCAIHPRLRTRYEEALARWLKPGGRLYALFMQKPERGGPPFDCALDAMRALFPAERWTWPAEADIQPWPHPQLNGKAELGAVLIRR
B9: AT-2: methyl halide transferase from Arabidopsis thaliana TM2, SEQ ID NO: 10 (protein, listed as Arabidopsis thaliana)
chain: MAEEQQNSDQSNGGNVIPTPEEVATFLHKTVEEGGWEKCWEEEITPWDQGRATPLIVHLVDTSSLPLGRALVPGCGGGHDVVAMASPERFVVGLDISESALAKANETYGSSPKAEYFSFVKEDVFTWRPTELFDLIFDYVFFCAIEPEMRPAWAKSMYELLKPDGELITLMYPITDHVGGPPYKVDVSTFEEVLVPIGFKAVSVEENPHAIPTRQREAGKVEEDQLIPKKEILLFGKSVICVIYKE
B10: O. tauri: methyl halide transferase (unnamed protein product) from Ostreococcus tauri, SEQ ID NO: 14 (protein, listed as Ostreococcus tauri)
chain: MTTSSAPTRHTSMRVALAAPATVTRRLGTYKRVFDRRAMSTRAIDGAVTSNAGDFARQDGSTDWEGMWSRGITKGAAFDCSRTEPAFQNALDAKEIAIGSGRALVPGCGRGYALASLARAGFGDVVGLEISETAKEACEEQLKAESIPETARVEVVVADFFAYDPKEAFDAAYDCTFLCAIDPRRREEWARKHASLIKPGGTLVCLVFPVGDFEGGPPYALTPEIVRELLAPAGFEEIELRETPAEMYARGRLEYLFTWRRRS
B11: VV: methyl halide transferase from Vitis vinifera, SEQ ID NO: 20 (protein, listed as Vitis vinifera)
chain: MASPDNTKPKARSSESVTGQRRGRRPSDRHWPCVGEESGSFYNTIADGERQYQHRIELRASKNKPSSWEEKWQQGLTPWDLGKATPIIEHLHQAGALPNGRTLIPGCGRGYDVVAIACPERFVVGLDISDSAIKKAKESSSSSWNASHFIFLKADFFTWNPTELFDLIIDYTFFCAIEPDMRPAWASRMQQLLKPDGELLTLMFPISDHTGGPPYKVSIADYEKVLHPMRFKAVSIVDNEMAIGSRKKKYPLKPDLSLFGFVDRPKRAYEARSEEFRISDWVCGWMGLCVPSGRISGGVCGLLSGRSLTWAKNLGVSTTQLRMSNNGSSIESNPKVQKLNQIIGSDSAGGWEKSWQQGHTPWDLGKPTPIIQHLHQTGTLPSGKTLVPGCGCGYDVVTIACPERFVVGLDISDSAIKKAKEISDHAGGPPYKVSVADYEEVLHPMGFKAVSIVDNKMAIGPRKGREKLGRWKRTPSKSLL
B12: HH: methyl halide transferase from Halorhodospira halophila SL1, SEQ ID NO: 21 (protein, listed as Halorhodospira halophila)
chain: MSGDPDPRRAPWEARWREGRTGWDRGGVSPTLEAWLSAGVIPGRRVLVPGAGRGYEVEALARRGYKVTAVDIAAEACQQLRDGLDAAGVEARVVQADLLAWQPDTPFDAVYEQTCLCALDPADWPAYEQRLYGWLRPGGVLLALFMQTGASGGPPFHCALPEMATLFDSERWQWPAEPPRQWPHPSGRWEEAVRLLRR
B13: RB: methyl halide transferase from Robiginitalea bofirmata HTCC2501, SEQ ID NO: 17 (protein, listed as Robiginitalea biformata)
chain: MTDLDRDFWEDRYRAGTDRWDLGGPSPPLTAYIDGLTDQELRILVPGAGRGYEAEYLYRAGFENLTIVDLARRPLDDLRRRLPELPAAALQQTDFFSFRGGPFDLILEHTFFCALPPARRPDYVQAMHRLLVPGGRLAGLFFDFPLTEDGPPFGGSETEYRNRFSSLFHIRKLERARNSIPPRAGTELFFIFEKK

These molecules were tested on methyl bromide and methyl iodide production in E. Coli (assay: Methyl halide production by heterologous MHTs expressed in E. coli (Example 8, headspace GC/MS)). Details: 165 mM NaX, 100 uM IPTG, 1.5 hours, FIG. 7.
Format: cell-based
Protocol: Nineteen methyl halide transferase genes from various organisms were codon-optimized and introduced into E. Coli. Production of methyl bromide and methyl iodide was determined for each. […] Group II UBA; Cryptococcus neoformans var. neoformans JEC21; Oryza sativa (japonica cultivar-group); Ostreococcus tauri; Dechloromonas aromatica RCB; Coprinopsis cinerea okayama; Robiginitalea bofirmata HTCC2501; Maricaulis maris MCS10; Flavobacteria bacterium BBFL7; Vitis vinifera and; halorhodospira halophila SL1.
For each strain a single colony was picked and grown overnight (10-14 hrs) in 20 mL of LB miller in a 30 mL glass test tube with aeration (a loose cap) at 37 C and 250 rpm shaking. The culture was spun down in a swinging bucket centrifuge for 5 min @ 3000×g. The cells were resuspended in 20mL of appropriate media (10 g/L Tryptone, 5 g/L Yeast Extract, 165 mM NaX [where X=CI, Br, I]) containing 100 uM IPTG inducer. The cells were sealed with rubber stoppers and parafilm and grown at 37 C with 250 rpm shaking for 1.5 hours. Cultures were taken to the GC/MS and 100 uL of headspace gas was sampled and loaded onto the column. The method run was VOIGT.m. The number of counts for the appropriate mass (MeCl, MeBr, MeI) were reported. Cells were always grown in the presence of 30 ug/mL chloramphenicol.
Methyl halide production was measured as described in the previous Examples. […] C. neoformans JEC21 gave the best methyl bromide and methyl iodide production. Leptospirillum gave the best methyl iodide production.
For B1, the methyl iodide production was “best”.
For B2, the methyl bromide production was “best”.
With B3 the methyl bromide production was “best” and the methyl iodide production was “best”.

Same assay, conditions: FIG. 7
With B4 the “halide specificity of methyl halide production” value (“halide specificity” below) was “significant specificity for methyl iodide production”.
In the case of B5, the “halide specificity” value is reported as “significant specificity for methyl iodide production”.
In the case of B6, the “methyl halide transferase activity” value is reported as “insignificant activity”.
B7 was tested, and the “halide specificity” value was “significant specificity for methyl iodide production”.
With B8 the “methyl halide transferase activity” value was “insignificant activity”.
With B9 the “methyl halide transferase activity” value was “insignificant activity”.
In the case of B10, the “halide specificity” value is reported as “significant specificity for methyl iodide production”.
In the case of B11, the “methyl halide transferase activity” value is reported as “insignificant activity”.
With B12 the “methyl halide transferase activity” value was “insignificant activity”.
For B13, the “methyl halide transferase activity” value was “insignificant activity”.
